The target of data set [1] is T1, SpoVGSa (Staphylococcus aureus) (UniProt Q7A7B5).
T1 sequence: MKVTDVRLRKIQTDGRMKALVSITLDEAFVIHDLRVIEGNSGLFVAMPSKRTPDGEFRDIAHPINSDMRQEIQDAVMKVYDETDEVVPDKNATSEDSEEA
Put plainly: EMSA. Particulars: 50 mM Tris-HCl pH 7.5, 1 mM DTT, 150 nM EDTA, 50 ng/ml poly dI-dC, phosphatase and protease inhibitors; about 20 C; protein stocks in 50 mM Tris-HCl, 25 mM ….

The target in data set [2] is T2, SpoVGBb (Borrelia burgdorferi B31) (UniProt O51726).
T2 sequence: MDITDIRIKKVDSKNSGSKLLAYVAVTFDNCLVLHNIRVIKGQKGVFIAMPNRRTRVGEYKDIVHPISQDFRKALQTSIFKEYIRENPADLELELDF
Put plainly: EMSA. To be noted: 50 mM Tris-HCl pH 7.5, 1 mM DTT, 150 nM EDTA, 50 ng/ml poly dI-dC, phosphatase and protease inhibitors; about 20 C; protein stocks in 50 mM Tris-HCl, 25 mM ….

Data set [3] deals with T1, SpoVGSa (Staphylococcus aureus). Put plainly: competition. To be noted: 50 mM Tris-HCl pH 7.5, 1 mM DTT, 150 nM EDTA, 50 ng/ml poly dI-dC, phosphatase and protease inhibitors; about 20 C; protein stocks in 50 mM Tris-HCl, 25 mM ….
Data set [4] concerns the target T3, SpoVGSa (Staphylococcus aureus, UniProt Q7A7B5 1-100).
T3 sequence: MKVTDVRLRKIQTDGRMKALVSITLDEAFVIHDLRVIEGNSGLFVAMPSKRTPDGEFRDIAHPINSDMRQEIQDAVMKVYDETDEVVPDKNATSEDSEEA
Put plainly: competition; 50-fold excess vs cap41; 50 mM Tris-HCl pH 7.5, 1 mM DTT, 150 nM EDTA, 50 ng/ml poly dI-dC, phosphatase and protease inhibitors; about 20 C; protein stocks in 50 mM Tris-HCl, 25 mM KCl, 10% glycerol, 0.01% Tween-20. Particulars: protein: recombinant; tags: 6xHis (pET101).

The next data set has as its target SpoVGBb-Sa (Borrelia burgdorferi B31, UniProt O51726 1-97, Q69S;F71M;K73Q;A74E). Put plainly: EMSA; 200 nM protein; 50 mM Tris-HCl pH 7.5, 1 mM DTT, 150 nM EDTA, 50 ng/ml poly dI-dC, phosphatase and protease inhibitors; about 20 C; protein stocks in 50 mM Tris-HCl, 25 mM KCl, 10% glycerol, 0.01% Tween-20. To be noted: protein: recombinant; tags: 6xHis (pET101); label: 5' biotin (strand 1); strands not exact complements (S12 has 3 extra nt).

The target in another data set is T4, SpoVGBb (Borrelia burgdorferi B31, UniProt O51726 1-97).
T4 sequence: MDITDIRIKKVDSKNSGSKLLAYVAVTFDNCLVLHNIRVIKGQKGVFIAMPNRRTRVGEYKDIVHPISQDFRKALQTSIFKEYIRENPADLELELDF
The data set is described as above. To be noted: protein: recombinant; tags: 6xHis (pET101); label: 5' biotin (strand 1); strands not exact complements (S12 has 3 extra nt).

Data set [5] addresses T3, SpoVGSa. The data set can be described thus: EMSA; 50 mM Tris-HCl pH 7.5, 1 mM DTT, 150 nM EDTA, 50 ng/ml poly dI-dC, phosphatase and protease inhibitors; about 20 C; protein stocks in 50 mM Tris-HCl, 25 mM KCl, 10% glycerol, 0.01% Tween-20. To be noted: protein: recombinant; tags: 6xHis (pET101); label: 5' biotin (strand 1); strands not exact complements (S12 has 3 extra nt). For orientation: Mobility shift assays separate free from complexed probe on a gel.

The target in a further data set is SpoVGSa K50A (Staphylococcus aureus, UniProt Q7A7B5 1-100, K50A). The data set can be described thus: EMSA; 1.5 uM protein; 50 mM Tris-HCl pH 7.5, 1 mM DTT, 150 nM EDTA, 50 ng/ml poly dI-dC, phosphatase and protease inhibitors; about 20 C; protein stocks in 50 mM Tris-HCl, 25 mM KCl, 10% glycerol, 0.01% Tween-20. To be noted: protein: recombinant; tags: 6xHis (pET101); label: 5' biotin (strand 1); strands not exact complements (S12 has 3 extra nt).

The next data set deals with SpoVGSa K50A-R51A (Staphylococcus aureus, UniProt Q7A7B5 1-100, K50A;R51A). The description is as above. To be noted: protein: recombinant; tags: 6xHis (pET101); label: 5' biotin (strand 1); strands not exact complements (S12 has 3 extra nt).
The target in a further data set is SpoVGSa R51A (Staphylococcus aureus, UniProt Q7A7B5 1-100, R51A). The data set is described as above. To be noted: protein: recombinant; tags: 6xHis (pET101); label: 5' biotin (strand 1); strands not exact complements (S12 has 3 extra nt).
Data set [6] addresses T3, SpoVGSa. The data set can be described thus: competition; 10- to 50-fold excess vs cap41; 50 mM Tris-HCl pH 7.5, 1 mM DTT, 150 nM EDTA, 50 ng/ml poly dI-dC, phosphatase and protease inhibitors; about 20 C; protein stocks in 50 mM Tris-HCl, 25 mM KCl, 10% glycerol, 0.01% Tween-20. To be noted: protein: recombinant; tags: 6xHis (pET101); blunt.
Data set [7] concerns the target T3, SpoVGSa. Put plainly: competition; 25- and 50-fold excess vs cap41; 50 mM Tris-HCl pH 7.5, 1 mM DTT, 150 nM EDTA, 50 ng/ml poly dI-dC, phosphatase and protease inhibitors; about 20 C; protein stocks in 50 mM Tris-HCl, 25 mM KCl, 10% glycerol, 0.01% Tween-20. To be noted: protein: recombinant; tags: 6xHis (pET101); blunt.

Where only a bound is given, the exact number is not on record here.

Broadly, the Kd is a measure of binding affinity in units of concentration. A low value points to tighter binding. The molecule cap5 5' non-coding DNA registered a Kd in [1] of 316 nM. “GTTAATAGTTTGCCTAAGGAAAAAAGCGATATAAGTAGTACGACGGGGAAACCAGATAGTACAGGTTCTGTTGGT (double strand) [vlsE F27B-R10]”: the binding entry in data set [2] is on record as “binds”. Take “CCTCCTGAATATTTTAAGTTTATCAAAACTTTTTAGGGACACTATTTTTTGAAAAAGTGCTCCTTACTCAAATAATATATAAATTATTAGTATATGTATATAGTTTTTTAAGTATTTTTAGTTTTTTTTAAATAAATATATTGAATATACCCATATATTTTTAATTAACCATTCATTTTTGTAATATAAATGTGTATACTAAAATTAAATTAAATACATAAAGG (double strand) [esxA 5' non-coding DNA]”: the binding entry in [3] is “binds”.

In the case of “GGTGAATACTTATCATTTAAGTCCTTTGACACCTCATCTAAAATTCTAGGACTTTTAACAATTTCTTTATACGTATTTACAAGTTGAATATTACTTTGAACCTCTTGCGCCATAAACTGAGGATTGTCACCCTTAGTTTGATTCACTAAAATTTGAGTATTAGCTTGATATTTAGGTGATAAGACGAAAAATGTAACAATAGCGC (double strand) [cap5A ORF DNA]”, the binding entry in [3] is “binds more weakly”.

B1: competitor C (dsDNA)
DNA 1: AAAATAATGCGGTTTAAAAGTAATTAAT
DNA 2: ATTAATTACTTTTAAACCGCATTATTTT
In the case of B1, the binding result in the data set with SpoVGSa [4] is on record as “no binding”.

B2: cap41 (dsDNA)
DNA 1: GAGTATAATTATTTTTAATTTACATATAAATAAAAAGGCGAAAATAATGCGGTTTAAAAGTAATTAAT
DNA 2: ATTAATTACTTTTAAACCGCATTATTTTCGCCTTTTTATTTATATGTAAATTAAAAATAATTAATATACTC
B2: the binding result is given as “binds” with SpoVGBb-Sa; “no binding” in the data set with SpoVGBb; “binds” in the data set with SpoVGSa [5]; “no binding” with SpoVGSa K50A; “no binding” with SpoVGSa K50A-R51A; “no binding” with SpoVGSa R51A.

B3: competitor B (dsDNA)
DNA 1: TACATATAAATAAAAAGGCGAAAATAAT
DNA 2: ATTATTTTCGCCTTTTTATTTATATGTA
Take B3: the binding result with SpoVGSa [4] is on record as “no binding”.

B4: competitor A (dsDNA)
DNA 1: GAGTATAATTATTTTTAATTTACATATA
DNA 2: TATATGTAAATTAAAAATAATTATACTC
In the case of B4, the binding result in the data set with SpoVGSa [6] is “binds”.

B5: mutant competitor A (dsDNA)
DNA 1: GAGTAGCCGCCTTTTCGCCGGACATATA
DNA 2: TATATGTCCGGCGAAAAGGCGGCTACTC
Turning to B5, the binding signal with SpoVGSa [7] is > 5 fold lower affinity than competitor A.

These data come from PMC3688583, “Eubacterial SpoVG Homologs Constitute a New Family of Site-Specific DNA-Binding Proteins”.
